Molecular target: the molecule itself
Assay: FRET or BRET

B1: Ciona intestinalis Hv1 (Ci-Hv1) D171A/S242C channel (natural protein, UniProt Q1JV40 1-342, looked up)
chain: MEGDNCNKSRHKSHNMINPNYASVRCTQPLPSVIQLRSRNKMIGITEDPSSDSEPVSSNQPLLLTNLSYEVHTFNDNNNHERPAPQEQSTQNTMISMQSEQKSDRFTASNLGMFQYMKFEIGEDGDDHEEEAILTNREKLRHILHSKPIHVAIIVLVVLDSFLVVGELLIALKVIIVPHGNPAPEILHGFSLSILSIFMVEIALKIIADHRHFIHHKVEVLDAVVVVISFGVDIALIFVGECEALAAIGLLVILRLWRVFRIINGIIVTVKTKADDRVHEIKKKNSELELQIHNLEEKLSQKEQDMSRLHEILRCNNIDIPPTVPLTTSVQIHSTTTASADV
modifications: Alexa488-maleimide (donor) or TMR-MTS (acceptor) on the introduced cysteine 242
In the case of B1, the “stoichiometry N” value is reported as 2.

From article PMC3558936 (Neuron, 2013)
